Assays:
[1] = target: T1, human Gas6 (Homo sapiens, UniProt Q14393); test: Kinetic Exclusion Assay (KinExA), Gas6-Axl binding, human Gas6
T1 sequence (Q14393 31-678): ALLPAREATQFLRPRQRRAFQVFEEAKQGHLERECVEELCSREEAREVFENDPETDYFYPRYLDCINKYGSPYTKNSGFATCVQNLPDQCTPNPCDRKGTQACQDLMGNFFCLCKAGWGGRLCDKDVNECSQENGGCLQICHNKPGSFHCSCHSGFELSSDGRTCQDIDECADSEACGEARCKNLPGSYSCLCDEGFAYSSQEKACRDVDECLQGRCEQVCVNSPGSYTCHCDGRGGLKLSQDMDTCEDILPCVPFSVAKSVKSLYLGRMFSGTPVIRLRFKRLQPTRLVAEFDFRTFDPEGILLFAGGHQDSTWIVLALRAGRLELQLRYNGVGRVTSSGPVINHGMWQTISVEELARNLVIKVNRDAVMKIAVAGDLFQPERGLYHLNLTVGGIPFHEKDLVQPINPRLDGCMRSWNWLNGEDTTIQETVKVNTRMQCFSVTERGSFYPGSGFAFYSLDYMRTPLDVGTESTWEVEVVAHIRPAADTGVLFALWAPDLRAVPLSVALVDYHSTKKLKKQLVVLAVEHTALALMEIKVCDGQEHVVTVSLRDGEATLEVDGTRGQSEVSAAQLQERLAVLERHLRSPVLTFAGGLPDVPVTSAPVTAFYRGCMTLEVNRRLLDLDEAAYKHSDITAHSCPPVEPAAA
Procedure: Equilibrium binding and association rate constants for all Gas6-Axl interactions were measured on a KinExA3200 instrument (Sapidyne Instruments Inc. Boise, Id.) as previously described. For equilibrium binding studies, three independent titrations were completed for each Axl Ig1 or Axl Fc fusion unless otherwise noted. […] After the appropriate incubation time, reactions were flowed over MYD1 Fc coated beads and captured free Gas6 was probed using an anti-6×HIS Dylight 649 antibody (#200-343-382, Rockland Immunochemicals Inc., Pottstown, Pa.). Each sample was measured twice and data from the three independent equilibrium binding experiments were globally analyzed using n-curve analysis in the KinExA Pro 3.6.2 software (Sapidyne Instruments Inc. Boise, Id.) to obtain the Kd value. To analyze the association rate of the interactions, the direct inject method was used. For these experiments, 1 μM Axl was serially diluted 1:2.5, and equal volumes of each Axl sample and 500 nM Gas6 were briefly mixed and flowed over the capture beads. Free Gas6 was detected as described and the data was fit using the KinExA Pro 3.6.2 software to obtain the association rate (kon) of the interaction. The dissociation rate (koff) was calculated as the product of the Kd and the kon.

[2] = target: T2, free, circulating Gas6 (Mus musculus, UniProt Q61592); settings: as previously determined using the same assay; cited from earlier work
T2 construct: from tissue; host or cells: mouse serum (nude nu/nu mice)
T2 sequence (Q61592 28-674): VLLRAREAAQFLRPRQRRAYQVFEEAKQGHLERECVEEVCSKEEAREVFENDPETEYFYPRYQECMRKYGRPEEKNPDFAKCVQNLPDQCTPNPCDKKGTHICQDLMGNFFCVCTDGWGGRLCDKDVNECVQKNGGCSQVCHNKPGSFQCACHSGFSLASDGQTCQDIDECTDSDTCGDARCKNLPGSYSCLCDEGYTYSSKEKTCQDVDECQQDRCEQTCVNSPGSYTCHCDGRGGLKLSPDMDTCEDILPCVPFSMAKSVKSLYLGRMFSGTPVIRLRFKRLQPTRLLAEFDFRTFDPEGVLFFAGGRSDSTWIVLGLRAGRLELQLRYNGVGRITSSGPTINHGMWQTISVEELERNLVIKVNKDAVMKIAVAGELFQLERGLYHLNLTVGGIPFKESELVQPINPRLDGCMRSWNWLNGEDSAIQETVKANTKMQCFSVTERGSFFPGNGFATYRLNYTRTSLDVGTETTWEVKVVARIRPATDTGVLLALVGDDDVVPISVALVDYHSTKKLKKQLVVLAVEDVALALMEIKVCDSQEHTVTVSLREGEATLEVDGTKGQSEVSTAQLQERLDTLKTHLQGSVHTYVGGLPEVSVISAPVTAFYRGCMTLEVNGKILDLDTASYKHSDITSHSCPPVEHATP

[3] = target: T2, free, circulating Gas6; test: In vivo Gas6 serum ELISA (sequestration of endogenous Gas6); settings: single 0.5 mg/kg dose via tail vein, up to 36 hours
Procedure: The amount of free, circulating Gas6 (i.e. not neutralized by the decoy receptor) was then quantified.
All doses were formulated in a 200 μl volume. Two mice were analyzed per condition and untreated mice were used to determine baseline Gas6 levels. At 2, 12, 24, and 36 h post-administration, retro-orbital bleeds were performed to obtain blood samples from which serum was isolated and free Gas6 was measured as previously described. The amount of free Gas6 in each sample was determined using a sandwich ELISA. In this assay, MYD1 Fc was used as a capture reagent in order to ensure the detection of free, unbound Gas6, and not Gas6/Axl Fc complexes. Detection of Gas6 was carried out using a biotinylated polyclonal anti-mouse Gas6 antibody (BAF986, R&D Systems, INC., Minneapolis, Minn.) and streptavidin HRP (#4800-30-06 Trevigen Inc., Gaithersburg, Md.).

[4] = system: Axl and FLT3 phosphorylation in AML cells; test: Western blot of Axl and FLT3 phosphorylation in AML cells; assay type: cell-based, human
Source text: Cell lysates subjected to sodium dodecyl sulfate polyacrylamide gel electrophoresis followed by transfer to nitrocellulose membrane. The membranes were then probed with primary antibodies against total Axl (AF154, R&D Systems, INC., Minneapolis, Minn.), phospho-Axl (T702; #5724, CST, Danvers, Mass.), total Akt (#4691 CST, Danvers, Mass.), phosphor-Akt (#4060, CST, Danvers, Mass.), anti-MERTK (#ab52968, Abcam, Cambridge, Mass.), phospho-MERTK (#ab14921 Abcam, Cambridge, Mass.), anti-Tyro3 (#5585, CST, Danvers, Mass.), phospho-Tyro3 (#orb186274, Biorbyt LLC, Berkely, Calif.), Bcl-2 Family Antibody Sampler Kit (#9934, CST, Danvers, Mass.), anti-Chk2 (#sc-5278, Santa Cruz Biotech, INC., Santa Cruz, Calif.), anti-XRCC1 (#2735, CST, Danvers, Mass.), anti-γH2AX (Merck Millipore #05636, Darmstadt, Germany), anti-phospho-ATM (#ab81292, Abcam, Cambridge, Mass.), anti-ATM (#ab78, Abcam, Cambridge, Mass.), anti phospho-ATR (#2853, CST, Danvers, Mass.), anti-ATR (#2790, CST, Danvers, Mass.), anti-Phospho Chk1 (#12302, CST, Danvers, Mass.), anti-Phospho Chk2 (#2197, CST, Danvers, Mass.) and anti-RPA32 (#2208, CST, Danvers, Mass.) at 4° C. overnight. The blots were then washed and probed with HRP conjugated anti-goat (#sc-2020, Santa Cruz Biotech, INC., Santa Cruz, Calif.), or HRP conjugated anti-rabbit (#A16110, Thermo Fisher Scientific, Walthan, Mass.) as appropriate. The blots were developed with Bio-Rad Western C developing reagent (#170-5060 Bio-Rad, Hercules, Calif.) and visualized with Chemidoc digital imager (#1708280, Bio-Rad, Hercules, Calif.).

- koff ([1]; calculated as the product of the Kd and the kon): 1.0 10^−5 s^−1
- kon ([1]; direct inject method): 2.3 10^7 M^−1 s^−1
B1: MYD1 Fc: Fc fusion of the first generation Axl decoy receptor MYD1 (protein)
chain: APRGTQAEESPFVSNPGNITGARGLTGTLRCQLQVQGEPPEVHWLRDGQILELADSTQTQVPLGEDEQGDWIVASQLRITSLQLSDTGQYQCLVFLGHQTFVSQPGYVRLEGLPYFLEEPEDRTVAANTPFNLSCQAQGPPEPVDLLWLQDAVPLATAPGHGPQRSLHVPGLNKTSSFSCEAHNAKGVTTSRTATITVLPQQPRNLHLVSRQPTELEVAWTPGLSGIYPLTHCTLQAVLSNDGMGIQAGEPDPPEEPLTSQASVPPHQLRLGSLHPHTPYHIRVACTSSQGPSSWTHWLPVETPEGVPLGPPENISATRNGSQAFVHWQEPRAPLQGTLLGYRLAYQGQDTPEVLMDIGLRQEVTLELQGDGSVSNLTVCVAAYTAAGDGPWSLPVPLEAWRPGQAQPVHQLVKEPSTPAFS
modifications: left off: a dimerising Fc or GST
- in vivo IC50 [2]: 0.5 mg/kg
- free, circulating Gas6 in serum [3]: rapidly eliminated free Gas6 upon administration
- Axl and FLT3 phosphorylation [4]: inhibited Axl and FLT3 phosphorylation
